Data from the supplement of paper PMC10567573.

B1: RIPK4 (parent)
chain: VSVNAQTLDGRTPLHLAAQRGHYR

Variants of: B1
Experiment: protein stability index of a GFP-peptide fusion (GPS, HEK-293T) (PSI 1-6); higher = more stable
Conditions: c terminus: a fixed tail appended
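Note: lentivirally expressed fusions sorted by FACS into six bins by GFP to DsRed ratio, PSI derived from sequencing read proportions per bin multiplied by bin number.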

Variant | protein stability index
VSVNAQTLDGRTPSHLAAQRGHYR [L14S] | 3.83
VSVNAQTLDGRTPRHLAAQRGHYR [L14R] | 3.7
VSVNAQTLDGRTPAHLAAQRGHYR [L14A] | 4.07
VSVNAQTLDGRTPCHLAAQRGHYR [L14C] | 1.96
VSVNAQTLDGRTPVHLAAQRGHYR [L14V] | 3.4
VSVNAQTLDGRTPTHLAAQRGHYR [L14T] | 3.5
VSVNAQTLDGRTPDHLAAQRGHYR [L14D] | 3.62
VSVNAQTLDGRTPFHLAAQRGHYR [L14F] | 3.1
VSVNAQTLDGRTPHHLAAQRGHYR [L14H] | 3.96
VSVNAQTLDGRTPIHLAAQRGHYR [L14I] | 3.39
VSVNAQTLDGRTPNHLAAQRGHYR [L14N] | 3.92
VSVNAQTLDGRTPGHLAAQRGHYR [L14G] | 3.52
VSVNAQTLDGRTPEHLAAQRGHYR [L14E] | 4.47
VSVNAQTLDGRTPKHLAAQRGHYR [L14K] | 3.96
VSVNAQTLDGRTPPHLAAQRGHYR [L14P] | 4
VSVNAQTLDGRTPQHLAAQRGHYR [L14Q] | 3.75
VSVNAQTLDGRTPMHLAAQRGHYR [L14M] | 3.26
VSVNIQTLDGRTPLHLAAQRGHYR [A5I] | 2.19
VSVNWQTLDGRTPLHLAAQRGHYR [A5W] | 2.83
VSVNPQTLDGRTPLHLAAQRGHYR [A5P] | 3.12
VSVNRQTLDGRTPLHLAAQRGHYR [A5R] | 2.94
VSVNLQTLDGRTPLHLAAQRGHYR [A5L] | 2.76
VSVNYQTLDGRTPLHLAAQRGHYR [A5Y] | 3.1
VSVNHQTLDGRTPLHLAAQRGHYR [A5H] | 3.36

Variant | protein stability index
VSVNVQTLDGRTPLHLAAQRGHYR [A5V] | 2.64
VSVNEQTLDGRTPLHLAAQRGHYR [A5E] | 3.73
VSVNGQTLDGRTPLHLAAQRGHYR [A5G] | 3.02
VSVNTQTLDGRTPLHLAAQRGHYR [A5T] | 3.52
VSVNCQTLDGRTPLHLAAQRGHYR [A5C] | 3.88
VSVNNQTLDGRTPLHLAAQRGHYR [A5N] | 3.53
VSVNSQTLDGRTPLHLAAQRGHYR [A5S] | 3.37
VSVNQQTLDGRTPLHLAAQRGHYR [A5Q] | 3.13
VSVNKQTLDGRTPLHLAAQRGHYR [A5K] | 3.69
VSVNFQTLDGRTPLHLAAQRGHYR [A5F] | 2.61
VSVNDQTLDGRTPLHLAAQRGHYR [A5D] | 4.28
VSVNMQTLDGRTPLHLAAQRGHYR [A5M] | 2.77
VSVNAQTLDGCTPLHLAAQRGHYR [R11C] | 2.91
VSVNAQTLDGMTPLHLAAQRGHYR [R11M] | 2.77
VSVNAQTLDGPTPLHLAAQRGHYR [R11P] | 3.38
VSVNAQTLDGHTPLHLAAQRGHYR [R11H] | 3.11
VSVNAQTLDGSTPLHLAAQRGHYR [R11S] | 3.12
VSVNAQTLDGQTPLHLAAQRGHYR [R11Q] | 3.62
VSVNAQTLDGLTPLHLAAQRGHYR [R11L] | 2.9
VSVNAQTLDGTTPLHLAAQRGHYR [R11T] | 2.71
VSVNAQTLDGKTPLHLAAQRGHYR [R11K] | 3.51
VSVNAQTLDGATPLHLAAQRGHYR [R11A] | 3.5
VSVNAQTLDGNTPLHLAAQRGHYR [R11N] | 3.42
VSVNAQTLDGETPLHLAAQRGHYR [R11E] | 3.78

Variant | protein stability index
VSVNAQTLDGITPLHLAAQRGHYR [R11I] | 2.73
VSVNAQTLDGVTPLHLAAQRGHYR [R11V] | 2.97
VSVNAQTLDGWTPLHLAAQRGHYR [R11W] | 2.85
VSVNAQTLDGGTPLHLAAQRGHYR [R11G] | 2.99
VSVNAQTLDGYTPLHLAAQRGHYR [R11Y] | 2.98
VSVNAQTLDGFTPLHLAAQRGHYR [R11F] | 2.65
VSVNAQTLDGDTPLHLAAQRGHYR [R11D] | 3.31
VSVNAQTLFGRTPLHLAAQRGHYR [D9F] | 2.25
VSVNAQTLNGRTPLHLAAQRGHYR [D9N] | 3.33
VSVNAQTLRGRTPLHLAAQRGHYR [D9R] | 3.31
VSVNAQTLSGRTPLHLAAQRGHYR [D9S] | 3.04
VSVNAQTLEGRTPLHLAAQRGHYR [D9E] | 3.78
VSVNAQTLGGRTPLHLAAQRGHYR [D9G] | 3.02
VSVNAQTLVGRTPLHLAAQRGHYR [D9V] | 2.9
VSVNAQTLKGRTPLHLAAQRGHYR [D9K] | 2.79
VSVNAQTLMGRTPLHLAAQRGHYR [D9M] | 2.62
VSVNAQTLCGRTPLHLAAQRGHYR [D9C] | 3.14
VSVNAQTLQGRTPLHLAAQRGHYR [D9Q] | 2.92
VSVNAQTLTGRTPLHLAAQRGHYR [D9T] | 3.22
VSVNAQTLPGRTPLHLAAQRGHYR [D9P] | 3.49
VSVNAQTLWGRTPLHLAAQRGHYR [D9W] | 2.35
VSVNAQTLLGRTPLHLAAQRGHYR [D9L] | 2.81
VSVNAQTLIGRTPLHLAAQRGHYR [D9I] | 2.33
VSVNAQTLAGRTPLHLAAQRGHYR [D9A] | 3.09

Variant | protein stability index
VSVNAQTLHGRTPLHLAAQRGHYR [D9H] | 3.15
VSVNAQTLYGRTPLHLAAQRGHYR [D9Y] | 2.48
VSVNAATLDGRTPLHLAAQRGHYR [Q6A] | 3.43
VSVNATTLDGRTPLHLAAQRGHYR [Q6T] | 3.44
VSVNASTLDGRTPLHLAAQRGHYR [Q6S] | 3.78
VSVNAHTLDGRTPLHLAAQRGHYR [Q6H] | 3.52
VSVNAKTLDGRTPLHLAAQRGHYR [Q6K] | 3.21
VSVNAYTLDGRTPLHLAAQRGHYR [Q6Y] | 2.59
VSVNARTLDGRTPLHLAAQRGHYR [Q6R] | 3.02
VSVNAMTLDGRTPLHLAAQRGHYR [Q6M] | 2.87
VSVNAITLDGRTPLHLAAQRGHYR [Q6I] | 2.69
VSVNAVTLDGRTPLHLAAQRGHYR [Q6V] | 2.68
VSVNACTLDGRTPLHLAAQRGHYR [Q6C] | 2.62
VSVNAFTLDGRTPLHLAAQRGHYR [Q6F] | 2.22
VSVNAETLDGRTPLHLAAQRGHYR [Q6E] | 2.95
VSVNAWTLDGRTPLHLAAQRGHYR [Q6W] | 2.49
VSVNAPTLDGRTPLHLAAQRGHYR [Q6P] | 3.96
VSVNANTLDGRTPLHLAAQRGHYR [Q6N] | 3.03
VSVNADTLDGRTPLHLAAQRGHYR [Q6D] | 3.93
VSVNALTLDGRTPLHLAAQRGHYR [Q6L] | 3.69
VSVNAGTLDGRTPLHLAAQRGHYR [Q6G] | 3.13
VSVNAQTLDERTPLHLAAQRGHYR [G10E] | 3.59
